Drawing on publication PMC10954480, this text covers stoichiometry N (moles RecB^hCD per mole RecB^n) for one substance.

The target in this experiment is 6x His-tagged RecB nuclease domain (RecB^928–1180) (Escherichia coli) (UniProt P08394). The experiment is described as follows: pull-down.
Sequence of 6x His-tagged RecB nuclease domain (RecB^928–1180) (Escherichia coli) (P08394 928-1180): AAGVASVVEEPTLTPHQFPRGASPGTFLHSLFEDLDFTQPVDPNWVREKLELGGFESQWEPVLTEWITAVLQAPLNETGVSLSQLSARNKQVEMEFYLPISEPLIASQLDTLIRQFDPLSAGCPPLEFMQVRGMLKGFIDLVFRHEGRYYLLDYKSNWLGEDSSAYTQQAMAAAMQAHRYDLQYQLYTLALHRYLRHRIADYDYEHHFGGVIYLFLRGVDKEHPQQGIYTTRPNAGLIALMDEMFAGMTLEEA

For the substance “RecB^1–927CD, truncated RecBCD enzyme lacking the RecB nuclease domain, P08394 1-927; P07648 1-1122; P04993 1-608”, the stoichiometry N (moles RecB^hCD per mole RecB^n) was found to be 0.95.
